Assay results from patent publication US7517949B2, “Livin-derived peptides, compositions and uses thereof” (Hadasit Medical Research Services & Development Ltd., priority 2003, dated 2009).
“Also recorded” adds a separate entry of the source. Residues, ends and D or L forms follow the SMILES beside them. *: point of attachment. Cbz = O=C(OCc1ccccc1)*; CH2F = FC*

B1: p30-Livin α: Livin α-derived peptide, cleavage product, C-terminal subunit of about 30 kDa with BIR and RING domains (protein, listed as Homo sapiens)
chain: GQILGQLRPLTEEEEEEGAGATLSRGPAFPGMGSEELRLASFYDWPLTAEVPPELLAAAGFFHTGHQDKVRCFFCYGGLQSWKRGDDPWTEHAKWFPSCQFLLRSKGRDFVHSVQETHSQLLGSWDPWEEPEDAAPVAPSVPASGYPELPTPRREVQSESAQEPGGVSPAEAQRAWWVLEPPGARDVEAQLRRLQEERTCKVCLDRAVSIVFVPCGHLVCAECAPGLQLCPICRAPVRSRVRTFLS
B2: Livin α: full-length Livin isoform α, IAP family member, about 39 kDa (protein, listed as Homo sapiens)
chain: MGPKDSAKCLHRGPQPSHWAAGDGPTQERCGPRSLGSPVLGLDTCRAWDHVDGQILGQLRPLTEEEEEEGAGATLSRGPAFPGMGSEELRLASFYDWPLTAEVPPELLAAAGFFHTGHQDKVRCFFCYGGLQSWKRGDDPWTEHAKWFPSCQFLLRSKGRDFVHSVQETHSQLLGSWDPWEEPEDAAPVAPSVPASGYPELPTPRREVQSESAQEPGGVSPAEAQRAWWVLEPPGARDVEAQLRRLQEERTCKVCLDRAVSIVFVPCGHLVCAECAPGLQLCPICRAPVRSRVRTFLS
B3: Livin β: full-length Livin isoform β, IAP family member, about 37 kDa (protein, listed as Homo sapiens)
chain: MGPKDSAKCLHRGPQPSHWAAGDGPTQERCGPRSLGSPVLGLDTCRAWDHVDGQILGQLRPLTEEEEEEGAGATLSRGPAFPGMGSEELRLASFYDWPLTAEVPPELLAAAGFFHTGHQDKVRCFFCYGGLQSWKRGDDPWTEHAKWFPSCQFLLRSKGRDFVHSVQETHSQLLGSWDPWEEPEDAAPVAPSVPASGYPELPTPRREVQSESAQEPGARDVEAQLRRLQEERTCKVCLDRAVSIVFVPCGHLVCAECAPGLQLCPICRAPVRSRVRTFLS
B4: p28-Livin β: Livin β-derived peptide, cleavage product, C-terminal subunit of about 28 kDa with BIR and RING domains (protein, listed as Homo sapiens)
chain: GQILGQLRPLTEEEEEEGAGATLSRGPAFPGMGSEELRLASFYDWPLTAEVPPELLAAAGFFHTGHQDKVRCFFCYGGLQSWKRGDDPWTEHAKWFPSCQFLLRSKGRDFVHSVQETHSQLLGSWDPWEEPEDAAPVAPSVPASGYPELPTPRREVQSESAQEPGARDVEAQLRRLQEERTCKVCLDRAVSIVFVPCGHLVCAECAPGLQLCPICRAPVRSRVRTFLS

Assays:
[1] = tested on: Livin cleavage in Jurkat cells; experiment: Livin cleavage in Jurkat cells pre-incubated with caspase inhibitors (Western blot); assay type: cell-based, human; conditions: Jurkat cells pre-incubated with inhibitor prior to treatment
Protocol: FIG. […]
Whole cell lysates were prepared using lysis buffer (Tris-HCl 20 mM, EDTA 2 mM, β-2-Mercaptoethanol 6 mM, NP-40 1%, SDS 0.1%). Protease inhibitors included: PMSF 1 mM, Protease inhibitor cocktail (Sigma) diluted 1:10, and Complete inhibitor cocktail (Roche, Germany) diluted 1:25. About 0.25-1×10^6 cells were lysed in a total volume of 100 μl, incubated at 4° C. for 20 minutes with vigorous vortexing. Protein content was assessed by Bradford assay (Bio-Rad, Germany), according to the manufacturer's instructions. Samples were resolved on a 10% Bis-Tris pre-cast gel, following the manufacturer's instructions (Invitrogen, USA). After transferring the gel to a PVDF membrane (Millipore, Mass. USA), the membrane was exposed to the antibodies in blocking solution (PBS 1% Casein, 0.05% Tween 20) for 1 hour, followed by three 5-minute washes with PBS. The monoclonal antibody against Livin (clone:88C570) was purchased from Imgenex, and diluted 1:3000 in blocking solution. Survivin 6E4 monoclonal antibody was used according to the manufacturer's recommendation. […]
Cells were incubated with caspase inhibitors for 1-2 hour prior to treatment with the apoptotic stimuli. […] Caspase 9 activity was assessed using caspase-9 colorimetric substrate LEHD-pNA (Biovision, Calif., USA). […]

[2] = tested on: 721.221 cells; experiment: Apoptosis of stably transfected 721.221 cells after anti-CD95/Fas treatment (nuclear morphology, acridine orange); assay type: cell-based; conditions: 0.1 μg/ml anti-CD95/Fas antibody, 18 hours, compared with wild type 721.221 cells
Protocol: FIG. 6a: 721.221 cells stably expressing either Livin α or […], and wild type 721.221 cells, were treated with 0.1 μg/ml anti-CD95/Fas antibody for 18 hours. Nuclear morphology was visualized using acridine orange staining and used for determining apoptosis rate.
(§1) Transfection with the pIRES2-EGFP plasmid (QIAGEN, Germany) encoding p30-Livin α or p28-Livin β, and as positive controls, the full length wild type cDNA of either Livin α or β was done either by electroporation, in 721.221 cells [Mandelboim, O. et al. (1996) J. Exp. Med., 184: 913-922], or using PolyFect (QIAGEN), in human embryonic kidney 293T cells, according to manufacturers instructions. […] Thus, cells transfected with this plasmid may be monitored for transfection by the absence or presence of the GFP signal.
(§2) Nuclear morphology was visualized using acridin orange (Sigma) staining as described [Loo, D. T. et al. (1998) Methods Cell Biol., 57: 251-264]. […] The percentage of apoptotic to viable cells was counted by fluorescence microscopy and 500 cells were scored for each sample. […] Cells transfected with a GFP-containing plasmid were analyzed using Annexin-V-Cy5 and PI staining according to the manufacturer instructions (MBL, Japan). In stably transfected cultures with a rate of GFP-positive cells higher than 95%, all cells were analyzed for apoptosis. […]

[3] = tested on: 293T cells; experiment: Spontaneous apoptosis of transiently transfected 293T cells (Annexin V/PI flow cytometry of GFP-positive cells); assay type: cell-based, human; conditions: 24 hours post-transfection, in comparison to full-length proteins or empty vector
Protocol: FIG. 6c: 293T cells were transiently transfected with the indicated plasmids. 24 hours post-transfection, cells were harvested and analyzed by flow cytometry. Apoptosis of GFP-positive cells was analyzed by Annexin-V/PI stain.
as §1, §2

[4] = tested on: LB33 Mel A1 cells; experiment: Cell death of transiently transfected LB33 Mel A1 cells (PI stain of GFP-positive cells); assay type: cell-based, human; conditions: data not shown; for induction of apoptosis by transient transfection: in comparison to full-length counterparts or control
Protocol: At the indicated times post transfection cells were analyzed for GFP percent as a marker of transfection, and the GFP-positive population was further analyzed for cell death using PI stain.

[5] = tested on: Jurkat cells; experiment: Protection of Livin-expressing cells from drug-induced apoptosis; assay type: cell-based, human
Protocol: Primary cultures of melanoma cells were tested for the expression of Livin, XIAP and Survivin. XIAP and Survivin were widely expressed in most of the melanoma samples tested. On the other hand, Livin was expressed at variable levels, in 10 out of the 27 melanoma samples.
To further explore the cleavage of each isoform, retroviral infection to establish a Jurkat T-cell Leukemia/Lymphoma cell line and an EBV-transformed B cell line 721.221, expressing high, stable levels of either Livin α or β were used. […] A panel of the three drugs etoposide, staurosporine, and anti-CD95/Fas ligand was thus used to induce apoptosis in the transfected Jurkat and 721.221 cells. Similar results were observed when cells were treated with anti-CD95/Fas antibody (data not shown). The correlation between the timing of the cleavage and apoptosis rate was further investigated.

[6] = tested on: Jurkat cells; conditions: cited from earlier work

Molecule | cleavage of Livin [1] | rate of apoptosis following anti-CD95/Fas treatment [2] | rate of spontaneous apoptosis [3] | induction of apoptosis by transient transfection [4] | also measured
COC(=O)C[C@H](NC(=O)[C@H](C)NC(=O)[C@@H](NC(=O)OCc1ccccc1)C(C)C)C(=O)CF [zVAD-FMK] (Cbz-Val-Ala-Asp(OMe)-CH2F) | significantly diminished the cleavage of Livin | – | – | – | –
CC[C@H](C)[C@H](NC(=O)[C@H](CCC(=O)O)NC(=O)[C@@H](NC(C)=O)C(C)C)C(=O)N[C@H](C=O)CC(=O)O [caspase 6 inhibitor] (Ac-VEID-aldehyde) | not | – | – | – | –
B1 | – | gained significant pro-apoptotic activity; also recorded: much higher rate of apoptosis | significantly higher rate of spontaneous apoptosis | sufficient to induce apoptosis | –
B2 | – | lower rate of apoptosis | – | – | protection from staurosporine-induced apoptosis [5]: can protect from staurosporine-induced apoptosis; protection against anti-CD95/Fas antibody-induced apoptosis ([6]; inventors' previous work (Ashhab 2001)): able to protect from apoptosis
B3 | – | – | – | – | protection against other chemotherapeutic agents ([5]; Jurkat cells, Daunorubicin, Fludarabine and Cytosine arabinoside, unpublished data): protect Jurkat cells; inhibition of etoposide-induced apoptosis ([6]; previously demonstrated by the inventors (Ashhab 2001)): inhibit etoposide-induced apoptosis; also recorded: can only block etoposide-induced apoptosis
B4 | – | – | significantly higher rate of spontaneous apoptosis | sufficient to induce apoptosis | rate of apoptosis, p28-Livin β relative to p30-Livin α ([4]; all time points tested): more potent pro-apoptotic agent than p30-Livin α; also recorded: much higher rate of apoptosis than p30-Livin α
